Data from PMC6378967, “Structural basis for the specificity of renin-mediated angiotensinogen cleavage” (The Journal of Biological Chemistry, 2018).

T1: biotinylated renin D226A mutant (human, biotin (NHS-PEG4-Biotin), preferentially on N-terminal alpha-amino groups)
T1 construct: human renin D226A, as m1; source: HEK293EBNA cells, purified; biotinylated with EZ-link-NHS-PEG4-Biotin at pH 6.2
T1 sequence (P00797 67-406 with D226A, looked up): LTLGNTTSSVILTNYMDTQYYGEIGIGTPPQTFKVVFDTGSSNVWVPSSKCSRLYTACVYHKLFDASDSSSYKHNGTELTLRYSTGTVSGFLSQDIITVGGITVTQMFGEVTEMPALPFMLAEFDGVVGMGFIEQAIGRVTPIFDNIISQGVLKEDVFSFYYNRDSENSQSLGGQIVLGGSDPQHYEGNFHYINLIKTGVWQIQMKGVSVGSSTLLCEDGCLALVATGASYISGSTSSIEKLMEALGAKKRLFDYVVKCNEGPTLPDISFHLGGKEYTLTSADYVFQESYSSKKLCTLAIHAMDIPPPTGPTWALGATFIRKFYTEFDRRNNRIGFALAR


Tests used:
[1] = biological target: T1, biotinylated renin D226A mutant; assay: BLI; FortéBio Octet Red96; biotinylated renin D226A (2.5 μg/ml) loaded on streptavidin biosensors; 2-fold dilutions of AGT in 10 mM Tris, pH 7.4, 0.15 M NaCl, 1% BSA; 1:1 binding model, global fit; KD = koff/kon; three independent assays; details: both partners purified
[2] = biological target: T1, biotinylated renin D226A mutant; assay: BLI; as a1 (biotinylated renin D226A on streptavidin biosensors), but KD from steady-state analysis because on and off rates were very fast; details: both partners purified

| Kd [1] [µM] | koff [1] [s⁻¹] | kon [1] [M⁻¹ s⁻¹] | Kd [2] [µM] | Binder |
| --- | --- | --- | --- | --- |
| 0.0203 | 0.000437 | 21500 | – | fully glycosylated WT human angiotensinogen (AGT) (natural protein, N-linked glycans (fully glycosylated; glycosylation sites Asn14, Asn137, Asn271, Asn295)) DRVYIHPFHLVIHNESTCEQLAKANAGKPKDPTFIPAPIQAKTSPVDEKALQDQLVLVAAKLDTEDKLRAAMVGMLANFLGFRIYGMHSELWGVVHGATVLSPTAVFGTLASLYLGALDHTADRLQAILGVPWKDKNCTSRLDAHKVLSALQAVQGLLVAQGRADSQAQLLLSTVVGVFTAPGLHLKQPFVQGLALYTPVVLPRSLDFTELDVAAEKIDRFMQAVTGWKTGCSLMGASVDSTLAFNTYVHFQGKMKGFSLLAEPQEFWVDNSTSVSVPMLSGMGTFQHWSDIQDNFSVTQVPFTESACLLLIQPHYASDLDKVEGLTFQQNSLNWMKKLSPRTIHLTMPQLVLQGSYDLQDLLAQAELPAILHTELNLQKLSNDRIRVGEVLNSIFFELEADEREPTESTQQLNKPEVLEVTLNRPFLFAVYDQSATALHFLGRVANPLSTA |
| – | – | – | 13 | spent AGT (human AGT without the N-terminal 10-residue angiotensin I peptide) (domain or fragment, glycosylated) VIHNESTCEQLAKANAGKPKDPTFIPAPIQAKTSPVDEKALQDQLVLVAAKLDTEDKLRAAMVGMLANFLGFRIYGMHSELWGVVHGATVLSPTAVFGTLASLYLGALDHTADRLQAILGVPWKDKNCTSRLDAHKVLSALQAVQGLLVAQGRADSQAQLLLSTVVGVFTAPGLHLKQPFVQGLALYTPVVLPRSLDFTELDVAAEKIDRFMQAVTGWKTGCSLMGASVDSTLAFNTYVHFQGKMKGFSLLAEPQEFWVDNSTSVSVPMLSGMGTFQHWSDIQDNFSVTQVPFTESACLLLIQPHYASDLDKVEGLTFQQNSLNWMKKLSPRTIHLTMPQLVLQGSYDLQDLLAQAELPAILHTELNLQKLSNDRIRVGEVLNSIFFELEADEREPTESTQQLNKPEVLEVTLNRPFLFAVYDQSATALHFLGRVANPLSTA |
